What was measured:
Assay in all cases: cell-based or functional assay
[1] = target: T1, N-terminally Hexa-His-tagged KDM4A (residues 1–359) (human, UniProt O75164 1-359)
T1 sequence (looked up): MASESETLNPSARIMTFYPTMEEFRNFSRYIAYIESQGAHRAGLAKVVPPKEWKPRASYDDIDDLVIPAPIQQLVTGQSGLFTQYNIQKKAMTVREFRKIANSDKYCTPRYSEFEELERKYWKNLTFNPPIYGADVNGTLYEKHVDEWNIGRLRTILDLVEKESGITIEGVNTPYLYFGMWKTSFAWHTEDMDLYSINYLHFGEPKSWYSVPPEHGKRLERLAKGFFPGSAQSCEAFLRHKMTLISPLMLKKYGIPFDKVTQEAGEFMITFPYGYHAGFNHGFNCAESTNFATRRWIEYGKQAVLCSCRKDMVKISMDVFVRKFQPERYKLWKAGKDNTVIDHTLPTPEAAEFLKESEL

KDM4C = target: T2, KDM4C (human, UniProt Q9H3R0 1-1056)
T2 sequence (looked up): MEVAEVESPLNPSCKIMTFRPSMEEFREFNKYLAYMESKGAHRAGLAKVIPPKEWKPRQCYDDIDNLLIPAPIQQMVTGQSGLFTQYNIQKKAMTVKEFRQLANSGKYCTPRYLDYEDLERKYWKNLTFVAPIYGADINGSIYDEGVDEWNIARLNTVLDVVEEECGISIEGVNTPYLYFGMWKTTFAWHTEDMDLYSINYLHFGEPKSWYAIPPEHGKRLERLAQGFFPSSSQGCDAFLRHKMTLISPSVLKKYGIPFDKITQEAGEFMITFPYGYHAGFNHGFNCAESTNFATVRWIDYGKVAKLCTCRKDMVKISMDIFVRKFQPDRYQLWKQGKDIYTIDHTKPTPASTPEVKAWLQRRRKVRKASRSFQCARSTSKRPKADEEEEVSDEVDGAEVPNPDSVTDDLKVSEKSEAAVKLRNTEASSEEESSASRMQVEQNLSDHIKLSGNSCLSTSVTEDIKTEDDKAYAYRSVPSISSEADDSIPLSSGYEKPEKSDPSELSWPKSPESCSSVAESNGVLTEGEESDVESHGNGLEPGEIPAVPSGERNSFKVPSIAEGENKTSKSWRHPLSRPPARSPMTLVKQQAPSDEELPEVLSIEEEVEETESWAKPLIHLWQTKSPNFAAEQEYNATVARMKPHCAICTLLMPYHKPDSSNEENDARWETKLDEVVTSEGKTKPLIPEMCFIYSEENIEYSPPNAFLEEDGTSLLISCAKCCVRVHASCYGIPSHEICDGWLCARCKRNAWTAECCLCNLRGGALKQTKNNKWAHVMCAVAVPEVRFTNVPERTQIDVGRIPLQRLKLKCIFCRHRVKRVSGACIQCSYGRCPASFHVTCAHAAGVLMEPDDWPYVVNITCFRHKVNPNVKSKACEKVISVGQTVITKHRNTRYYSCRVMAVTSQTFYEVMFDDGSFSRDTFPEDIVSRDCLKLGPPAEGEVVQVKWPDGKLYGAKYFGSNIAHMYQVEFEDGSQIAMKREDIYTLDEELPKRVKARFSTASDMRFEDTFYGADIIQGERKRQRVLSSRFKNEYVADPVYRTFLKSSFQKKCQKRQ

factor inhibiting HIF = factor inhibiting HIF (UniProt Q9NWT6 1-349)
KDM4B = target: T3, KDM4B (human, UniProt O94953 1-1096)
T3 sequence (looked up): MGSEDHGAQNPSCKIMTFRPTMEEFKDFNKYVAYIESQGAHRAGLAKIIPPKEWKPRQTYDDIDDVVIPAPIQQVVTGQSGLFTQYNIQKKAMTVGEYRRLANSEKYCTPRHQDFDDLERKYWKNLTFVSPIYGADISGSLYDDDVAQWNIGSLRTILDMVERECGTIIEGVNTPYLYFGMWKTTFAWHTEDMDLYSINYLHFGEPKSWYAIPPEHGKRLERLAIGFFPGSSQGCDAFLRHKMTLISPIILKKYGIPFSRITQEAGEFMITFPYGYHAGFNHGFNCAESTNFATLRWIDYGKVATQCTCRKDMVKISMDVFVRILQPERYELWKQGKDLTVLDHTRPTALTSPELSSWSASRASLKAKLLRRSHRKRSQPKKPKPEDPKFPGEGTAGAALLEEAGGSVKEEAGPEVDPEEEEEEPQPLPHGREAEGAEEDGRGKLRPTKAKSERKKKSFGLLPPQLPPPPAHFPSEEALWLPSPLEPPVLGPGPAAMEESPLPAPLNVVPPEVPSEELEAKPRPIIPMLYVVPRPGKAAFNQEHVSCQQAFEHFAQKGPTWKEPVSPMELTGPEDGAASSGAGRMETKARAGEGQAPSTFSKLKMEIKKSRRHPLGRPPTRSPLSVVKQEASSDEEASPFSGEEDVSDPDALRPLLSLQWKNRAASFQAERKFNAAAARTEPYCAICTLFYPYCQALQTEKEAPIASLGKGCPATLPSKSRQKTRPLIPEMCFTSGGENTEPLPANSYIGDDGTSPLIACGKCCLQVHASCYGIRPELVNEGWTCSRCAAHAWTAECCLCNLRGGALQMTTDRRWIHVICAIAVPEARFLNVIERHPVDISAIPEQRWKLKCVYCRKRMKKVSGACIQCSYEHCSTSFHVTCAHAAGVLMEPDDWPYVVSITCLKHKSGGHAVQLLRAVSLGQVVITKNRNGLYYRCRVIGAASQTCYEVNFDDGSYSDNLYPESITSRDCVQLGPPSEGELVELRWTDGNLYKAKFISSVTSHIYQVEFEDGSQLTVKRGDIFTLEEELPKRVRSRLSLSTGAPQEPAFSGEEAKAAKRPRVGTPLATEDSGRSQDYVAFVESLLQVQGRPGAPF

Chain of factor inhibiting HIF (Q9NWT6 whole entry): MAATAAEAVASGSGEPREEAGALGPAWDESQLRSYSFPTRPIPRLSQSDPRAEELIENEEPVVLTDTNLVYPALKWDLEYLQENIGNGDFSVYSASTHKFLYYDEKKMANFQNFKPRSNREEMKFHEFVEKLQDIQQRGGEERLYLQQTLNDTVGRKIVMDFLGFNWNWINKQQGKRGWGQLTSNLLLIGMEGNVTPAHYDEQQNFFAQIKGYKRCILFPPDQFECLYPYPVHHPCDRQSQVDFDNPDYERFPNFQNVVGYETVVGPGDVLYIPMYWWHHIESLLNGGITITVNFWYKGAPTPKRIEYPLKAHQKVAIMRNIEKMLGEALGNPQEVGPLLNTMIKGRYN

- IC50 of inhibition of demethylase activity (AlphaScreen activity assay) [1]: 0.02 µM
- IC50 of inhibition of demethylase activity (AlphaScreen activity assay) (KDM4C): 0.017 µM
- IC50 of inhibition of FIH (MALDI–TOF MS assay) (factor inhibiting HIF): > 1000 µM
- IC50 of inhibition of demethylase activity (AlphaScreen activity assay) (KDM4B): 0.006 µM
B1: CP4 (peptide)
chain: YLKSRRSGLTWIPC
modifications: not fully specified; N-terminal L-Tyr (^LTyr library, N-chloroacetyl-L-Tyr) cyclised by a thioether to a downstream cysteine
